According to paper PMC10850505, “Molecular mechanism of specific HLA-A mRNA recognition by the RNA-binding-protein hMEX3B to promote tumor immune escape”:

Key:
[1] = molecular target: T1, hMEX3B KH1/2 (G177D/G180D) (Homo sapiens, UniProt Q6ZN04 56-230, G177D;G180D); assay: ITC; N 0.89; ITC at 298 K, protein injected into RNA, both dialyzed in the same buffer (composition not in the material; purification SEC buffer 2 M NaCl, 20 mM Tris pH 7.5); NMR at 298 K, 0.1 mM protein; settings: protein: recombinant; tags: 6xHis-SUMO cleaved (ULP1)
T1 sequence: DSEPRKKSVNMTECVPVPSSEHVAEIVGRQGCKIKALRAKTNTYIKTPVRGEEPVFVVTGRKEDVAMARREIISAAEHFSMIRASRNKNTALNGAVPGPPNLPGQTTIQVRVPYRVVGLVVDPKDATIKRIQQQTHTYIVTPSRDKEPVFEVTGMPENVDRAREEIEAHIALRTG

[2] = molecular target: T2, hMEX3B KH2 WT (Homo sapiens, UniProt Q6ZN04 156-230); assay: ITC; N 1.79; ITC at 298 K, protein injected into RNA, both dialyzed in the same buffer (composition not in the material; purification SEC buffer 2 M NaCl, 20 mM Tris pH 7.5); NMR at 298 K, 0.1 mM protein; settings: protein: recombinant; tags: modified pET28a without thrombin site (His tag likely retained)
T2 sequence: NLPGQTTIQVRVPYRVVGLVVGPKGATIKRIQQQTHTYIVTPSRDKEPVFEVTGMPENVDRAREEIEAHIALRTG

[3] = molecular target: T3, hMEX3B KH1/2 (T196A/R199A) (Homo sapiens, UniProt Q6ZN04 56-230, T196A;R199A); assay: ITC; N 0.68; ITC at 298 K, protein injected into RNA, both dialyzed in the same buffer (composition not in the material; purification SEC buffer 2 M NaCl, 20 mM Tris pH 7.5); NMR at 298 K, 0.1 mM protein; settings: protein: recombinant; tags: 6xHis-SUMO cleaved (ULP1)
T3 sequence: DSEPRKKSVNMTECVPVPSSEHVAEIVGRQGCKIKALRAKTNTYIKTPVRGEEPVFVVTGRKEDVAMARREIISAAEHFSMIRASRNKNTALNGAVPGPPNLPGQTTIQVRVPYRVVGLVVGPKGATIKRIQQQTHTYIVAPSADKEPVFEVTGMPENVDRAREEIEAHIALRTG

[4] = molecular target: T4, hMEX3B KH1/2 (G83D/G86D) (Homo sapiens, UniProt Q6ZN04 56-230, G83D;G86D); assay: ITC; N 0.67; ITC at 298 K, protein injected into RNA, both dialyzed in the same buffer (composition not in the material; purification SEC buffer 2 M NaCl, 20 mM Tris pH 7.5); NMR at 298 K, 0.1 mM protein; settings: protein: recombinant; tags: 6xHis-SUMO cleaved (ULP1)
T4 sequence: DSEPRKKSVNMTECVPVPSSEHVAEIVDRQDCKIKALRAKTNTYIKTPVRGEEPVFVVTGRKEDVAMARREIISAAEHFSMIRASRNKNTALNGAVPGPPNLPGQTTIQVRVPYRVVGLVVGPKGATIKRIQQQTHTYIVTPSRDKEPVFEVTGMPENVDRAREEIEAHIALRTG

[5] = molecular target: T5, hMEX3B KH1/2 WT (Homo sapiens, UniProt Q6ZN04 56-230); assay: ITC; N 0.91; ITC at 298 K, protein injected into RNA, both dialyzed in the same buffer (composition not in the material; purification SEC buffer 2 M NaCl, 20 mM Tris pH 7.5); NMR at 298 K, 0.1 mM protein; settings: protein: recombinant; tags: 6xHis-SUMO cleaved (ULP1)
T5 sequence: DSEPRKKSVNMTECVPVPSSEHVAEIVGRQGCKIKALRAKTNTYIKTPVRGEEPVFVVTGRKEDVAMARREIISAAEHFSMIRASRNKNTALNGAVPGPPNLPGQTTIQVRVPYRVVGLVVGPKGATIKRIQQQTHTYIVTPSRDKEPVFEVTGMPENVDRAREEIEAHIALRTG

[6] = molecular target: T6, hMEX3B KH1/2 (TR4A) (Homo sapiens, UniProt Q6ZN04 56-230, T102A;R105A;T196A;R199A); assay: ITC; ITC at 298 K, protein injected into RNA, both dialyzed in the same buffer (composition not in the material; purification SEC buffer 2 M NaCl, 20 mM Tris pH 7.5); NMR at 298 K, 0.1 mM protein; settings: protein: recombinant; tags: 6xHis-SUMO cleaved (ULP1)
T6 sequence: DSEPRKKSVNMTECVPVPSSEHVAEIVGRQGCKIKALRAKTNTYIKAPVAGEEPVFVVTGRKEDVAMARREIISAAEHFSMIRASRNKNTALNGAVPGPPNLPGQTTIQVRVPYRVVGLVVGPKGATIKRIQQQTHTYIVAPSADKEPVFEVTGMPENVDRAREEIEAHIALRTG

[7] = molecular target: T7, hMEX3B KH1/2 (G4D) (Homo sapiens, UniProt Q6ZN04 56-230, G83D;G86D;G177D;G180D); assay: as above; settings: protein: recombinant; tags: 6xHis-SUMO cleaved (ULP1)
T7 sequence: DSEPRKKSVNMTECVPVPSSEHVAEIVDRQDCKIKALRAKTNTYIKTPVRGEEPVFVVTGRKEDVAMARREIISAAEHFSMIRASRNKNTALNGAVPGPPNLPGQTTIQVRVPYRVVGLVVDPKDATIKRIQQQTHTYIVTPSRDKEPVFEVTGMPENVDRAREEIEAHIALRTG

[8] = molecular target: T8, hMEX3B KH1 WT (Homo sapiens, UniProt Q6ZN04 56-144); assay: ITC; N 1.91; ITC at 298 K, protein injected into RNA, both dialyzed in the same buffer (composition not in the material; purification SEC buffer 2 M NaCl, 20 mM Tris pH 7.5); NMR at 298 K, 0.1 mM protein; settings: protein: recombinant; tags: modified pET28a without thrombin site (His tag likely retained)
T8 sequence: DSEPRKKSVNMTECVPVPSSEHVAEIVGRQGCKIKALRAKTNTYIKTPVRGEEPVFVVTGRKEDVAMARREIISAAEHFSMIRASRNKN

[9] = molecular target: T9, hMEX3B KH1/2 (T102A/R105A) (Homo sapiens, UniProt Q6ZN04 56-230, T102A;R105A); assay: ITC; N 0.79; ITC at 298 K, protein injected into RNA, both dialyzed in the same buffer (composition not in the material; purification SEC buffer 2 M NaCl, 20 mM Tris pH 7.5); NMR at 298 K, 0.1 mM protein; settings: protein: recombinant; tags: 6xHis-SUMO cleaved (ULP1)
T9 sequence: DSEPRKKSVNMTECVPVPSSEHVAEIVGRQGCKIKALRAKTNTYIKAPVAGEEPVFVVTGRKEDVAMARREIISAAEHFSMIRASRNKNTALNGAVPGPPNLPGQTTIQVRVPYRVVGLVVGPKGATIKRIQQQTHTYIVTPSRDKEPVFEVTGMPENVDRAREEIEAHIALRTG

[10] = molecular target: T5, hMEX3B KH1/2 WT; assay: ITC; N 0.84; text says larger than 1.11 uM; ITC at 298 K, protein injected into RNA, both dialyzed in the same buffer (composition not in the material; purification SEC buffer 2 M NaCl, 20 mM Tris pH 7.5); NMR at 298 K, 0.1 mM protein; settings: protein: recombinant; tags: 6xHis-SUMO cleaved (ULP1)
[11] = molecular target: T2, hMEX3B KH2 WT; assay: ITC; ITC at 298 K, protein injected into RNA, both dialyzed in the same buffer (composition not in the material; purification SEC buffer 2 M NaCl, 20 mM Tris pH 7.5); NMR at 298 K, 0.1 mM protein; settings: protein: recombinant; tags: modified pET28a without thrombin site (His tag likely retained)
[12] = molecular target: T8, hMEX3B KH1 WT; assay: as above; settings: protein: recombinant; tags: modified pET28a without thrombin site (His tag likely retained)
[13] = molecular target: T2, hMEX3B KH2 WT; assay: ITC; N 1.02; ITC at 298 K, protein injected into RNA, both dialyzed in the same buffer (composition not in the material; purification SEC buffer 2 M NaCl, 20 mM Tris pH 7.5); NMR at 298 K, 0.1 mM protein; settings: protein: recombinant; tags: modified pET28a without thrombin site (His tag likely retained)
[14] = molecular target: T8, hMEX3B KH1 WT; assay: ITC; N 0.89; ITC at 298 K, protein injected into RNA, both dialyzed in the same buffer (composition not in the material; purification SEC buffer 2 M NaCl, 20 mM Tris pH 7.5); NMR at 298 K, 0.1 mM protein; settings: protein: recombinant; tags: modified pET28a without thrombin site (His tag likely retained)
[15] = molecular target: T5, hMEX3B KH1/2 WT; assay: ITC; N 0.94; ITC at 298 K, protein injected into RNA, both dialyzed in the same buffer (composition not in the material; purification SEC buffer 2 M NaCl, 20 mM Tris pH 7.5); NMR at 298 K, 0.1 mM protein; settings: protein: recombinant; tags: 6xHis-SUMO cleaved (ULP1)
[16] = molecular target: T5, hMEX3B KH1/2 WT; assay: ITC; N 0.96; ITC at 298 K, protein injected into RNA, both dialyzed in the same buffer (composition not in the material; purification SEC buffer 2 M NaCl, 20 mM Tris pH 7.5); NMR at 298 K, 0.1 mM protein; settings: protein: recombinant; tags: 6xHis-SUMO cleaved (ULP1)
[17] = molecular target: T5, hMEX3B KH1/2 WT; assay: ITC; N 0.89; ITC at 298 K, protein injected into RNA, both dialyzed in the same buffer (composition not in the material; purification SEC buffer 2 M NaCl, 20 mM Tris pH 7.5); NMR at 298 K, 0.1 mM protein; settings: protein: recombinant; tags: 6xHis-SUMO cleaved (ULP1)
[18] = molecular target: T5, hMEX3B KH1/2 WT; assay: ITC; ITC at 298 K, protein injected into RNA, both dialyzed in the same buffer (composition not in the material; purification SEC buffer 2 M NaCl, 20 mM Tris pH 7.5); NMR at 298 K, 0.1 mM protein; settings: protein: recombinant; tags: 6xHis-SUMO cleaved (ULP1)

Binder: CUGAGCUGUAAC (ssRNA) [12-nt RNA]
- Kd [1]: 7.42 ± 1.32 µM
- Kd [2]: 21.7 ± 6.87 µM
- Kd [3]: 5.98 ± 0.59 µM
- Kd [4]: 10.4 ± 1.29 µM
- Kd [5]: 0.0436 ± 0.00763 µM
- binding result [6]: no binding
- binding result [7]: no binding
- Kd [8]: 26.2 ± 7.4 µM
- Kd [9]: 2.08 ± 0.29 µM

Binder: CUGCGCUGUAAC (ssRNA) [12-nt RNA A4C]
- Kd [5]: 2.1 ± 0.31 µM

Binder: UGUAACCUGAGC (ssRNA) [switched 12-nt RNA]
- Kd [10]: > 1.11 µM

Binder: CCCCCC (ssRNA) [C6 RNA]
- binding result [11]: no binding
- binding result [12]: no binding

Binder: CUGAGC (ssRNA) [6-nt RNA CUGAGC]
- Kd [13]: 9.57 ± 0.99 µM

Binder: UGUAAC (ssRNA) [6-nt RNA UGUAAC]
- Kd [14]: 10.3 ± 0.61 µM

Binder: CUGAGCUGUACC (ssRNA) [12-nt RNA A11C]
- Kd [15]: 0.89 ± 0.09 µM

Binder: CCGAGCUGUAAC (ssRNA) [12-nt RNA U2C]
- Kd [16]: 0.72 ± 0.09 µM

Binder: CUGAGCUGUCAC (ssRNA) [12-nt RNA A10C]
- Kd [17]: 1.58 ± 0.24 µM

Binder: CCCCCCCCCCCC (ssRNA) [C12 RNA]
- binding result [18]: no binding
